Laboratory results from patent US20260248972A1, “DUAL RECEPTOR TARGETING RADIOLIGANDS AND USES THEREOF RELATED APPLICATIONS” (priority 2022, published 2026).

Assay: in vivo
Conditions: BALB/c nude, mouse, in vivo, iv, total radioactivity
Procedure: To a 0.5 M NaOAc buffer (20-50 μL, pH=4.5) was added 4 μL of exemplary or comparator compound in DMSO stock solution (2000 μM) and 2 mCi ^177Lu (ITM Isotope Technologies Munich), the resulting mixture was heated to 95° C. for 15 min. The resulting product was analyzed by radio-TLC and radio-HPLC (column: Shim-pack GIST 5 μm 4.6*150 mm; buffer A: 0.2% formic acid H2O; buffer B: 0.1% formic acid acetonitrile; flow rate: 1 mL/min; gradient: 0-5 min: 10% B to 95% B; then 5-8 min: 95% B). The labelled products were used immediately or diluted by a PBS buffer containing freshly added 3 mg/mL ascorbate.
All animal care and experimental procedure were performed by following the animal protocols approved by the ethics committee of China Institute of Radiation Protection. The BALB/c nude mice (Charles River, Beijing) were utilized for these studies. Mice were below 5 per cage in sterile, microisolator cages under temperature- and humidity-controlled conditions with a 12 h light/12 h dark schedule and fed irradiated rodent chow and reverse osmosis (RO) sterile water ad libitum. In preparation for tumor cell inoculations, mice were anesthetized with isoflurane (RWD Life Science Inc.) at an induction rate of 4% and maintained at a rate of 2.5% with 0.4 L oxygen delivered via precision vaporizer and a non-rebreathing apparatus. These mice received subcutaneous rear flank injections of approximately 4×10^6 AR42J cells ([…] pancreatic cancer cell line) suspended in 200 μL of phosphate-buffered saline (PBS) and Matrigel (Corning) (1/1). Xenografted tumors were allowed to grow for ~2-4 weeks post-inoculation and ranged in mass from 0.05 to 0.50 g (average tumor size, 0.20 g). […] The mice were euthanized, and the tissues and organs were excised from the animals at 4, 24 and 72 h post-injection. The tissues and organs were weighed, counted in a PerkinElmer 2480 WIZARD2 γ counter, and the percent injected dose (% ID) and % ID/g of each organ or tissue were calculated.

Compound: C[C@@H](O)[C@H](NC(=O)[C@@H]1CSSC[C@H](NC(=O)[C@@H](Cc2ccccc2)NC(=O)COCCOCCNC(=O)[C@H](CCCCNC(=O)CC[C@H](NC(=O)CNC(=O)c2cccc(NC(=O)N[C@@H]3CN(C4CCCCC4)c4ccccc4N(CC(=O)C(C)(C)C)C3=O)c2)C(=O)O)NC(=O)COCCOCCNC(=O)CC[C@H](NC(=O)CC[C@H](NC(=O)CN2CCN(CC(=O)O)CCN(CC(=O)O)CCN(CC(=O)O)CC2)C(=O)O)C(=O)O)C(=O)N[C@@H](Cc2ccc(O)cc2)C(=O)N[C@H](Cc2c[nH]c3ccccc23)C(=O)N[C@@H](CCCCN)C(=O)N[C@@H]([C@@H](C)O)C(=O)N1)C(=O)O [^177Lu-1-14, metal not drawn]
- tissue uptake at 4 h (% ID/g Adrenal gland): 3.55 %ID/g
- tissue uptake at 24 h (% ID/g Adrenal gland): 2.72 %ID/g
- tissue uptake at 72 h (% ID/g Adrenal gland): 1.44 %ID/g
- tissue uptake at 4 h (% ID/g Blood): 1.32 %ID/g
- tissue uptake at 24 h (% ID/g Blood): 0.09 %ID/g
- tissue uptake at 72 h (% ID/g Blood): 0.02 %ID/g
- tissue uptake at 4 h (% ID/g Femur): 0.49 %ID/g
- tissue uptake at 24 h (% ID/g Femur): 0.4 %ID/g
- tissue uptake at 72 h (% ID/g Femur): 0.31 %ID/g
- tissue uptake at 4 h (% ID/g Heart): 0.8 %ID/g
- tissue uptake at 24 h (% ID/g Heart): 0.17 %ID/g
- tissue uptake at 72 h (% ID/g Heart): 0.19 %ID/g
- tissue uptake at 4 h (% ID/g Intestine): 0.6 %ID/g
- tissue uptake at 24 h (% ID/g Intestine): 1.25 %ID/g
- tissue uptake at 72 h (% ID/g Intestine): 0.37 %ID/g
- tissue uptake at 4 h (% ID/g Kidney): 48.2 %ID/g
- tissue uptake at 24 h (% ID/g Kidney): 68.6 %ID/g
- tissue uptake at 72 h (% ID/g Kidney): 24.3 %ID/g
- tissue uptake at 4 h (% ID/g Liver): 3.31 %ID/g
- tissue uptake at 24 h (% ID/g Liver): 2.24 %ID/g
- tissue uptake at 72 h (% ID/g Liver): 1.28 %ID/g
- tissue uptake at 4 h (% ID/g Lung): 1.32 %ID/g
- tissue uptake at 24 h (% ID/g Lung): 0.72 %ID/g
- tissue uptake at 72 h (% ID/g Lung): 0.95 %ID/g
- tissue uptake at 4 h (% ID/g Muscle): 0.17 %ID/g
- tissue uptake at 24 h (% ID/g Muscle): 0.17 %ID/g
- tissue uptake at 72 h (% ID/g Muscle): 0.11 %ID/g
- tissue uptake at 4 h (% ID/g Pancreas): 2.11 %ID/g
- tissue uptake at 24 h (% ID/g Pancreas): 3.37 %ID/g
- tissue uptake at 72 h (% ID/g Pancreas): 3.14 %ID/g
- tissue uptake at 4 h (% ID/g Spleen): 0.64 %ID/g
- tissue uptake at 24 h (% ID/g Spleen): 0.56 %ID/g
- tissue uptake at 72 h (% ID/g Spleen): 2.17 %ID/g
- tissue uptake at 4 h (% ID/g Stomach): 3.68 %ID/g
- tissue uptake at 24 h (% ID/g Stomach): 2.25 %ID/g
- tissue uptake at 72 h (% ID/g Stomach): 2.99 %ID/g
- tissue uptake at 4 h (% ID/g Tumor): 30.9 %ID/g
- tissue uptake at 24 h (% ID/g Tumor): 14.9 %ID/g
- tissue uptake at 72 h (% ID/g Tumor): 18 %ID/g

Compound: C[C@@H](O)[C@H](NC(=O)[C@@H]1CSSC[C@H](NC(=O)[C@@H](Cc2ccccc2)NC(=O)COCCOCCNC(=O)[C@H](CCCCNC(=O)c2cccc(NC(=O)N[C@@H]3CN(C4CCCCC4)c4ccccc4N(CC(=O)C(C)(C)C)C3=O)c2)NC(=O)CN2CCN(CC(=O)O)CCN(CC(=O)O)CCN(CC(=O)O)CC2)C(=O)N[C@@H](Cc2ccc(O)cc2)C(=O)N[C@H](Cc2c[nH]c3ccccc23)C(=O)N[C@@H](CCCCN)C(=O)N[C@@H]([C@@H](C)O)C(=O)N1)C(=O)O [Compound 177Lu-I-37, metal not drawn]
- tissue uptake at 4 h (% ID/g Adrenal gland): 2.01 %ID/g
- tissue uptake at 24 h (% ID/g Adrenal gland): 1.43 %ID/g
- tissue uptake at 72 h (% ID/g Adrenal gland): 0.22 %ID/g
- tissue uptake at 4 h (% ID/g Blood): 0.94 %ID/g
- tissue uptake at 24 h (% ID/g Blood): 0.18 %ID/g
- tissue uptake at 72 h (% ID/g Blood): 0.05 %ID/g
- tissue uptake at 4 h (% ID/g Fat): 3.28 %ID/g
- tissue uptake at 24 h (% ID/g Fat): 0.4 %ID/g
- tissue uptake at 72 h (% ID/g Fat): 0.32 %ID/g
- tissue uptake at 4 h (% ID/g Femur): 0.83 %ID/g
- tissue uptake at 24 h (% ID/g Femur): 0.26 %ID/g
- tissue uptake at 72 h (% ID/g Femur): 0.18 %ID/g
- tissue uptake at 4 h (% ID/g Heart): 1.12 %ID/g
- tissue uptake at 24 h (% ID/g Heart): 0.4 %ID/g
- tissue uptake at 72 h (% ID/g Heart): 0.15 %ID/g
- tissue uptake at 4 h (% ID/g Intestine): 2.17 %ID/g
- tissue uptake at 24 h (% ID/g Intestine): 0.67 %ID/g
- tissue uptake at 72 h (% ID/g Intestine): 0.5 %ID/g
- tissue uptake at 4 h (% ID/g Kidney): 22.5 %ID/g
- tissue uptake at 24 h (% ID/g Kidney): 7.79 %ID/g
- tissue uptake at 72 h (% ID/g Kidney): 3.16 %ID/g
- tissue uptake at 4 h (% ID/g Liver): 11 %ID/g
- tissue uptake at 24 h (% ID/g Liver): 2.4 %ID/g
- tissue uptake at 72 h (% ID/g Liver): 2.03 %ID/g
- tissue uptake at 4 h (% ID/g Lung): 4.42 %ID/g
- tissue uptake at 24 h (% ID/g Lung): 1.38 %ID/g
- tissue uptake at 72 h (% ID/g Lung): 1.41 %ID/g
- tissue uptake at 4 h (% ID/g Muscle): 0.38 %ID/g
- tissue uptake at 24 h (% ID/g Muscle): 0.1 %ID/g
- tissue uptake at 72 h (% ID/g Muscle): 0.03 %ID/g
- tissue uptake at 4 h (% ID/g Pancreas): 4.5 %ID/g
- tissue uptake at 24 h (% ID/g Pancreas): 0.68 %ID/g
- tissue uptake at 72 h (% ID/g Pancreas): 0.19 %ID/g
- tissue uptake at 4 h (% ID/g Spleen): 0.8 %ID/g
- tissue uptake at 24 h (% ID/g Spleen): 0.2 %ID/g
- tissue uptake at 72 h (% ID/g Spleen): 0.13 %ID/g
- tissue uptake at 4 h (% ID/g Stomach): 6.95 %ID/g
- tissue uptake at 24 h (% ID/g Stomach): 2.58 %ID/g
- tissue uptake at 72 h (% ID/g Stomach): 2.13 %ID/g
- tissue uptake at 4 h (% ID/g Tumor): 48.7 %ID/g
- tissue uptake at 24 h (% ID/g Tumor): 23.1 %ID/g
- tissue uptake at 72 h (% ID/g Tumor): 21.4 %ID/g
